# From publication PMC4708090 (Biochemistry, 2015)
# B1: wt Bfd (C43S mutant of P. aeruginosa bacterioferritin-associated ferredoxin) (natural protein, Pseudomonas aeruginosa)
# chain: MYVCLCQGVTDNQIRDAIYEGCCSYREVREATGVGTQCGKCASLAKQVVRETLNDLQSAQPVPAFGTTAFVAA
# B2: K40A Bfd (natural protein, Pseudomonas aeruginosa)
# chain: MYVCLCQGVTDNQIRDAIYEGCCSYREVREATGVGTQCGACASLAKQVVRETLNDLQSAQPVPAFGTTAFVAA
# B3: L5A Bfd (natural protein, Pseudomonas aeruginosa)
# chain: MYVCACQGVTDNQIRDAIYEGCCSYREVREATGVGTQCGKCASLAKQVVRETLNDLQSAQPVPAFGTTAFVAA
# B4: Y2F Bfd (natural protein, Pseudomonas aeruginosa)
# chain: MFVCLCQGVTDNQIRDAIYEGCCSYREVREATGVGTQCGKCASLAKQVVRETLNDLQSAQPVPAFGTTAFVAA
# B5: wt BfrB (Pseudomonas aeruginosa bacterioferritin B, 24-mer) (natural protein)
# chain: not shown
# What was measured:
# [1] = target: B5; assay: SPR
# [2] = target: B5; assay: SPR; remark: listed apart in the source
# [3] = target: E85A BfrB (Pseudomonas aeruginosa, UniProt Q9HY79 1-158, E85A); assay: SPR
# [4] = target: E81A BfrB (Pseudomonas aeruginosa, UniProt Q9HY79 1-158, E81A); assay: SPR
# [5] = target: L68A BfrB (Pseudomonas aeruginosa, UniProt Q9HY79 1-158, L68A); assay: SPR
# [6] = target: B5; assay: SPR; remark: listed apart in the source
# [7] = target: B5; assay: ITC
# [8] = target: B5; assay: SPR; remark: listed apart in the source
# [9] = target: the molecule itself; assay: SEC
# [10] = target: B1; assay: ITC
binder,measurement,setting,value
B1,Kd,[1],2.6 ± 0.4 µM
same,koff,[1],0.069 ± 0.01 s⁻¹
same,kon,[1],26000 ± 2000 M⁻¹ s⁻¹
same,Kd,[2],3.3 ± 0.5 µM
same,Kd,[3],590 ± 2 µM
same,Kd,[4],258 ± 21.5 µM
same,Kd,[5],298 ± 20.5 µM
same,stoichiometry N,[6],12.7 Bfd per 24-mer BfrB
same,Kd,[7],4.2 ± 0.4 µM
B2,Kd,[8],7.7 ± 0.5 µM
B3,Kd,[8],82 ± 2.5 µM
B4,Kd,[8],10.7 ± 0.2 µM
B5,binding result,[9],binds
same,dH,[10],1.6 ± 0.3 kcal/mol
